Test results as given in the DeepSol protein solubility set.

Assay: soluble on expression in E. coli; label from the status in PepcDB or PDB records

Row | Sequence | soluble on expression in E. coli
1 | MGSDKIHHHHHHMEFSLERDEARLVEIASIQETYGTFLIEHLDEKTAIISGSWDPLRRCAFVNYVGLIVGEAEDLSAFQEGLPAGKFYIRYRDIDGDKPMSEAAIGDMLKARGRVSFRDPDYVVRVVHHGIFYVTKVVYERDKKQFIERKAPRRPFFSPVSMDPKYARFLVNTAHVRENQLLIDPFCGTGGILIEAALMGIRVIGNDVALSMAAGARTNLKHFHVEDFHIYNMDVSDLPVRDVDGIATDMPYGRNSYASEDLEVLYERSFRKFHEMLKPHGYASFVVSDPDLAELARPFFNIVHDVPVYQHRSLTRHFITAMRKD | not soluble
2 | MIPFDYERATDVDSAVATVTGDPRASFLAGGTNLVDHMKLGVARPHLLVDVSRLPLGDVVELPDGGLRIGAAVRNSDLAAHDVVRARYPMLSRALLSGASGQLRNLATTAGNLLQRTRCVYFQDVTTPCNKREPGTGCSAIGGYVRYHAILGASEHCVAVHPSDMAVAMTALDGVVVVRGADGERRIPLSEFYRLPGDRPDRDTVLAHGDLVTAVELPPPPSGNRSAYRKVRDRASFAFAVVSVAAELTIGDTSITSARVALGGVAHRPWRATLAEEVLVGSPPTEATYTEAAAAELAAAQPLPGNEFKVALTRRVLASVLRSLAEEARR | soluble
3 | MKRYISIKGIGTYLPKRKVDSLEIDQMLDVPEGWTLKKAGVKTRYFVDGETSSYMGAEAAKKAVEDAKLTWDDIDCIICGSGTIQQAIPSTASLIQEQLGLQHSGIPCFDINSTCLSFITALDTISYAIECGRYKNVVIISSEISSVGLNWGQNESSILFGDGAAAVVITKGDHSSSIIASHMETYSSGAHLSEIRGGGTMIHPREYSEERKEDFLFDMNGRAIFKLSSKYLMKFIDKLLMDTGYSLADIDLIVPHQASGPAMRLIRKKLGVDEERFMTIFEDYGNMISASIPVALFEAIKQKKVQRGNKILLLGTSAGLSIGGILLEY | not soluble
4 | MSLAPANGLRIYALGGISEIGRNMTVFEYNNRLLIVDCGVLFPSSGEPGVDLILPDFGPIEDHLHRVDALVVTHGHEDHIGAIPWLLKLRNDIPILASRFTLALIAAKCKEHRQRPKLIEVNEQSNEDRGPFNIRFWAVNHSIPDCLGLAIKTPAGLVIHTGDIKLDQTPPDGRPTDLPALSRFGDEGVDLMLCDSTNATTPGVSGSEADVAPTLKRLVGDAKQRVILASFASNVYRVQAAVDAAVASNRKVAFNGRSMIRNMEIAEKLGYLKAPRGTIISMDDASRMAPHKVMLITTGTQGEPMAALSRMARREHRQITVRDGDLIILSSSLVPGNEEAVFGVINMLAQIGATVVTGRDAKVHTSGHGYSGELLFLYNAARPKNAMPVHGEWRHLRANKELAISTGVNRDNVVLAQNGVVVDMVNEGHHHHHH | soluble
5 | MSLESVKCIFERHPDFASKFRPKNRHMKSTYMTVLLGLIKTMCQLPEELTDDDLDEASVAVSYVENGGLRLDWLEKKLAEVKAKKKKVETGKARLQRAEEELQKLNQKCLEMKAFLEKENADVSEANVPLSFEDVVSMIPLPNLHAKNAGYLVNGEVKIVVEINDLEVIGKLDVSEESEETNQPLKKIKLDDNDAVSFDSLNETSPVKESIDVNGFQVLPSEGHHHHHH | soluble
6 | MLTEIGKIIRQRRQQHGITIEQLAEQSNVSISLISRLERGKVDNIKLQSLTAIAETLNLKIADFFRDELLQSPNVVALLDYLSDLPAHQREELAGTLLKLLRLSKS | not soluble
7 | MQLKRKNSVFIDPRIQEVAGPCEPSDNGNNEEEDKIISIRATASSASITKESVPEAPPTHFIPVVVTVEPDAWEKFRDIIQVNRNIVIVKVGRWLMSSFMPGDQISLVNGTAIWNSDDLENQVRGPKKETKTEVTVIRVWNLKCLTDIQLDKLLVPPEEQLHYFSVKVYSSKGTIGLKLCLDKKRVLVELIRAKTPVNSALLVGDQILGINDELLTAKSKRALRKQVAEVMKKSIKKQGFAEIIACRQVIARSSPAPSLEAELSEKFANYAVGVEKGTRIEKKDSSETNSLPLHSDALEIALRELACLKQWIVESSTEVPPCDKGPTLMIDPPTAPGSAEGCPPPLVKAKSTTNAIERSVYFPLSTTAAVAILVSTPKKRSIFRQQDRNSAINFAEQPDHEKITSDIPEEDDLKKCEPMSGIAAYIKKKFN | not soluble
8 | PVKPVAPGEQQKNWAHWGNTTHGDRFAALDQINKQNVNQLQVAWVAHTGDIPQSNGSGAEDQNTPLQIGDTLYVCTPYSKVLALDVDSGKEKWRYDSKSSSPNWQRCRGLGYYEDSQAQTAPAAGTQPAACSRRLFLPTIDARLIAIDADTGKLCESFGDRGIVDLSVGMGEVKAGYYQQTSTPLVAGNVVVVGGRVADNYSTGEPPGVVRAFDVHTGKLAWAWDPGNPALTGVPPEGQTYTRGTPNVWSAMSYDAKLNLIYLPTGNATPDFFGGERTALDDKYSSSIVAVDATTGQVRWHFQTTHHDLWDFDLPSQPLLYDLPDGKGGTTPVLVQTSKQGMIFMLNRETGEPVAKVEERPVPAGNVKGERYSPTQPYSVGMPMIGNQTLTESDMWGATPIDLLLCRIQFKEMRHQGVFTPPGEDRSLQFPGSLGGMNWGSVSLDPNNSLMFVNDMRLGLANYMVPRAKVAKDASGIEMGIVPMEGTPFGAMRERFLSPLGIPCQKPPFGTMSAVDLKTGKLVWQVPVGTVEDTGPLGIRMHMPIPIGMPTLGASLATQSGLLFFAGTQDFYLRAFDTANGKEIWKSRLPVGSQSGPMTYVSPKTGKQYIIINAGGARQSPDRGDYIIAYALPDHH | not soluble
9 | MMSIFSVQTGSLVGTVHRYVKQPRQSWAYPIKQKSQTGTDNTKSALTLEKFTKPLTRKFSHDTICRKAPFVGVELQKPSATLTIMGKVHRQRQE | not soluble
10 | MSSFIEMIENITPDVYESLKLAVEIGKWSDGRKLTQEQRELSLQALIAWEAQNLPEDQRTGYMGPQECASKSAPVPNILFKSDAIH | not soluble
11 | MADKSSRSLILYGDGLARFVDPSNTNIHSLASVATCGFLSLPNAPPETENERIVREFSHLLDASEAYSIASGLKPKGNGNDISTLAERFMGLKAALVTDSSTLTSFGKLIGLDVLQLSEICQESDSFPSDATSSKLLKLLGFEGGKCLDVNLYDLVFVHFGVDEYNNGNNMGILDSLIGSIMGMAQPGSEILSRLHLSVVLSYGSVTDKDVSVFPIKTPQEDINPAFIGLVPRQSYTMRGEKTRDDVRHYCPMLVAQWQHGVTRKDLVDTLSFEALKKLCGNLVIPADRFIHEVAFKLWKAPKYGA | soluble
12 | MNGKARISIAIDGPAGAGKSTIAKIISKTLNILYLDTGAMYRAVALKAIRESVDTLNREQMSKLVENIDIKIAHSEDIQRIFLDGEDVTDFIRTPEVSIGASNVATVPAVRLKMVELQREIAKKNSVVMDGRDIGTYVLPDATLKFFLTASVEARAIRRYNELLSKGITQITLEDVKKDIEYRDKNDSNREFAPLSKAPDAIEIDTTDLTIEQVVNKIMEYAKDYVC | soluble
13 | MTWNTCSLCVTSELMNTLDEAKIPLQKAVNYHEQSQNRQFRITLITKCLENQENPEKSEVSVNFFVDLKELVPSCAYFEKFDGLSYVEFSTNCKSTWISAPESVAAPHEDCSHRFQSPIISRNFHAFLDSVCPSLYGIRPTPLTLSSIVPVLDMLSHFHSEPLLTNCERFLMSTNIGHLDGNHLIRLLDKGLCVSLDHRILGRILCICLMSPQAKMSDSSQELAGTIGSVFAQAFVALVYQKLMVKCEENSNLLIEKSKKSIFDGIFMENLKKKLIFHNFYEYSNISKSFRHIKPLEQESSLWPMAMRNLLIPGALGANSSSSKGSSEEKIGNKKRKRQECDHNEESFECILCFDQRCGKCKGEAAFCYKALDNFLYEIRLQLYPHTYRPHLDRDLLREERLSDYILRNQFQPLPDAN | not soluble
14 | MSLKRVMLKISGEALAGTNGYGIDFEVANRIAKEIKEIVDLGIEVGAVVGGGNIWRGRNGKGMDRTTADYMGMLATCINALALQDSLENMDVDTRVQTAIEMKQVAEPFIRRRAMRHLEKGRVVIFAGGTGNPYFSTDTTAALRAAEIEADVILLAKKVDGVYDKDPHKYDDAIKFDNLTYMEVLEKNLQVMDSTATSLCMDNNIPIIVFGLDVSGNIRKAVLGEKIGTIVSKEGHHHHHH | soluble
15 | MNIQEKFKAIRKQRKLSLRDLANVAGSTSSISDFEKGKTNLSNDVLLQLLGFMVVEINEIFEWSAFQDAEFLELMTQVENALQTQDITVLIQKRETLQEFFVAKNHYIYHIISLVLDVIISKLQEKEPTPEIISELTDYFFSLDYWTNLDVGLLGNIVHHFTTETLVLFTDSILKNTPNQLRNNLDRIKIDTVINCLSVLLARREKNASQELLQLLSRKQFPTYFTYEKLCISEFKAIYMYIWCDKEEADNIHQTILKTVSLLFTKDEANKWDDYFKEIISSADIKK | not soluble
